# Laboratory results from PMC6727741.
# Biological target: IFT dynein heavy chain (D1bHC) (Chlamydomonas reinhardtii (endogenous in cc4533 and wdr92-1 cells)) (UniProt Q9SMH5)
# Assay: SEC
substance,measurement,value
"IFT dynein heavy chain (D1bHC), Q9SMH5 1-4334",stoichiometry N,2
